Reference: paper doi:10.1101/2025.09.10.675378 (bioRxiv, 2025)

Target: the molecule itself
Test: native MS

Protein	binding result
hDVL3 PDZ-IDR2-DEP (aa 243-496) (domain or fragment) MSLNIITVTLNMEKYNFLGISIVGQSNERGDGGIYIGSIMKGGAVAADGRIEPGDMLLQVNEINFENMSNDDAVRVLREIVHKPGPITLTVAKCWDPSPRGCFTLPRSEPIRPIDPAAWVSHTAAMTGTFPAYGMSPSLSTITSTSSSITSSIPDTERLDDFHLSIHSDMAAIVKAMASPESGLEVRDRMWLKITIPNAFIGSDVVDWLYHNVEGFTDRREARKYASNLLKAGFIRHTVNKITFSEQCYYIFGD	binds
phosphorylated hDVL3 PDZ-IDR2-DEP (PDZ-pIDR2-DEP, aa 243-496) (domain or fragment, 8-19 phosphates on S/T residues of IDR2 (native ESI-MS), added by CK1ε) MSLNIITVTLNMEKYNFLGISIVGQSNERGDGGIYIGSIMKGGAVAADGRIEPGDMLLQVNEINFENMSNDDAVRVLREIVHKPGPITLTVAKCWDPSPRGCFTLPRSEPIRPIDPAAWVSHTAAMTGTFPAYGMSPSLSTITSTSSSITSSIPDTERLDDFHLSIHSDMAAIVKAMASPESGLEVRDRMWLKITIPNAFIGSDVVDWLYHNVEGFTDRREARKYASNLLKAGFIRHTVNKITFSEQCYYIFGD	binds
